Substrate: N#Cc1cc2ccc(OCOCc3ccccc3)cc2oc1=O
Assay: Michaelis-Menten kinetic determination of BOMCC O-dealkylation
Assay type: biochemical, Trypanosoma cruzi
Settings: other: 37 pmoles/mL T. cruzi CYP51 enzyme, 25-250 μM BOMCC, 37°C
Method: Incubations were pre-warmed at 37°C before addition of NADPH regenerating system. Production of CHC was measured at 1 minute intervals at 37°C (Exc 410 nm, Em 460 nm) for 10 minutes (Fig 3b). […] Assay conditions of 37 pmoles/mL of T. cruzi CYP51 in bactosomes and 100 μM BOMCC provided a good dynamic range of metabolism.

B1: T. cruzi CYP51 (Trypanosoma cruzi strain CL Brener) (protein)
chain: MFIEAIVLALTALILYSVYSVKSFNTTRPTDPPVYPVTVPFLGHIVQFGKNPLEFMQRCKRDLKSGVFTISIGGQRVTIVGDPHEHSRFFSPRNEILSPREVYTIMTPVFGEGVAYAAPYPRMREQLNFLAEELTIAKFQNFVPAIQHEVRKFMAENWKEDEGVINLLEDCGAMIINTACQCLFGEDLRKRLNARHFAQLLSKMESSLIPAAVFMPWLLRLPLPQSARCREARAELQKILGEIIVAREKEEASKDNNTSDLLGGLLKAVYRDGTRMSLHEVCGMIVAAMFAGQHTSTITTSWSMLHLMHPKNKKWLDKLHKEIDEFPAQLNYDNVMDEMPFAERCVRESIRRDPPLLMVMRMVKAEVKVGSYVVPKGDIIACSPLLSHHDEEAFPNPRLWDPERDEKVDGAFIGFGAGVHKCIGQKFALLQVKTILATAFREYDFQLLRDEVPDPDYHTMVVGPTLNQCLVKYTRKKKLPS
notes: ompA leader (N); host or cells: E. coli JM109 (membrane fraction, bactosomes)
B1 gave a Km of 191 ± 55 µM.

Reference: article PMC4578769, “Development of a Fluorescence-based Trypanosoma cruzi CYP51 Inhibition Assay for Effective Compound Triaging in Drug Discovery Programmes for Chagas Disease” (PLoS Neglected Tropical Diseases, 2015)
